In the supplement of paper PMC10126150:
± gives the standard deviation of the averaged measurements.

System: ATP
Assay: switch fluorescence ratio, 500 uM ATP over buffer (Cy3 cluster intensity, sum of 5 cycles each) (fold (ratio)); higher = stronger signal-on switching upon ATP binding; sequences stand for … in TCGTCGGCAGCGTCAGATGTGTATAAGAGACAGTTTTTTTTTTTTTTTTTTTTTTTTT…TC
Conditions: aptamer strand: ATP DNA aptamer (quencher-CACCTGGGGGAGTATTGCGGAGGAAGG + anchor), 100 nM annealed; ATP concentration: 500 uM
Procedure, shortened: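 The fluorescence ratio divides summed target-cycle Cy3 intensity by summed buffer-cycle Cy3 intensity for each cluster and is averaged per switch-domain sequence. Cy3-labelled switching-strand clusters on a modified Illumina MiSeq flow-cell were annealed to 100 nM quencher-labelled ATP aptamer, then imaged in selection buffer and again after 15 min with 500 uM ATP at 22 °C. Five such cycles were run, with NaOH stripping and re-annealing between them, and clusters outside 100-1000 RFU were excluded.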
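Note: ATP exposure 15 min at 22 °C before imaging.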

Row | Sequence | switch fluorescence ratio
1 | GTGCCAAGGG | 1.16 ± 0.21
2 | GTGCCCCAAG | 1 ± 0.015
3 | GTGCCCGGAT | 0.9846 ± 0.0065
4 | GTGCCCTGAC | 1.29 ± 0.041
5 | GTGCCGGGGC | 1.08 ± 0.11
6 | GTGCCTTTGC | 1.11 ± 0.067
7 | GTGCGATGTA | 1.02 ± 0.031
8 | GTGCGCAGAT | 0.982 ± 0.022
9 | GTGCGCATTG | 1.03 ± 0.046
10 | GTGCTATTAT | 0.993 ± 0.024
11 | GTGCTTAATG | 0.975 ± 0.011
12 | GTGGAAAAGG | 0.966 ± 0.046
13 | GTGGAAAGCG | 0.981 ± 0.059
14 | GTGGAAGGGG | 0.988 ± 0.03
15 | GTGGAAGTCG | 0.966 ± 0.017
16 | GTGGAATGGG | 0.983 ± 0.055
17 | GTGGACGGGG | 0.983 ± 0.033
18 | GTGGACGTTT | 1.02 ± 0.057
19 | GTGGAGGGTG | 1.05 ± 0.035
20 | GTGGAGGTTG | 0.984 ± 0.03
21 | GTGGATAGCT | 1 ± 0.05
22 | GTGGATGCAT | 1.01 ± 0.022
23 | GTGGATGGGA | 0.977 ± 0.015
24 | GTGGATTAGA | 0.9767 ± 0.0056
25 | GTGGATTATC | 1.01 ± 0.036
26 | GTGGATTATT | 0.993 ± 0.05

Row | Sequence | switch fluorescence ratio
27 | GTGGCAACGC | 0.98 ± 0.021
28 | GTGGCAGGTA | 1 ± 0.012
29 | GTGGCATTTT | 1.01 ± 0.03
30 | GTGGCTGAGG | 1.004 ± 0.0082
31 | GTGGCTTTAT | 1.01 ± 0.013
32 | GTGGCTTTGT | 1.02 ± 0.029
33 | GTGGGAAGTT | 0.9926 ± 0.0071
34 | GTGGGACACG | 1.01 ± 0.048
35 | GTGGGAGATA | 1.01 ± 0.038
36 | GTGGGATGAC | 1.01 ± 0.024
37 | GTGGGATTAG | 1 ± 0.028
38 | GTGGGATTCG | 1.011 ± 0.0059
39 | GTGGGCCAGG | 1.06 ± 0.094
40 | GTGGGGAAGT | 0.995 ± 0.034
41 | GTGGGGACAC | 0.973 ± 0.036
42 | GTGGGGATTA | 1 ± 0.018
43 | GTGGGGATTT | 1.01 ± 0.013
44 | GTGGGGCTGG | 1.008 ± 0.0055
45 | GTGGGGGACG | 0.982 ± 0.021
46 | GTGGGGGCAT | 1 ± 0.041
47 | GTGGGGGCGC | 1.04 ± 0.022
48 | GTGGGGGGCC | 0.966 ± 0.028
49 | GTGGGGGTCG | 0.98 ± 0.075
50 | GTGGGGGTGG | 0.985 ± 0.015
51 | GTGGGGGTTA | 0.996 ± 0.03
52 | GTGGGGGTTT | 1.05 ± 0.14

Row | Sequence | switch fluorescence ratio
53 | GTGGGGTCTT | 1 ± 0.019
54 | GTGGGGTGAA | 1.03 ± 0.055
55 | GTGGGGTTTT | 0.983 ± 0.022
56 | GTGGGTAAAG | 0.975 ± 0.01
57 | GTGGGTAGCG | 0.994 ± 0.013
58 | GTGGGTATTT | 0.977 ± 0.023
59 | GTGGGTCGGT | 0.979 ± 0.036
60 | GTGGGTGGTC | 1.02 ± 0.013
61 | GTGGGTGTGG | 1.02 ± 0.022
62 | GTGGGTTACT | 1.02 ± 0.021
63 | GTGGGTTAGG | 0.996 ± 0.031
64 | GTGGGTTCAG | 1 ± 0.018
65 | GTGGGTTCCT | 1.013 ± 0.0021
66 | GTGGGTTGTG | 0.978 ± 0.04
67 | GTGGTAACCT | 1.4 ± 0.12
68 | GTGGTACAGG | 1.02 ± 0.068
69 | GTGGTACATA | 0.981 ± 0.022
70 | GTGGTAGGGG | 0.995 ± 0.025
71 | GTGGTAGTTC | 0.983 ± 0.015
72 | GTGGTATTAT | 1.01 ± 0.021
73 | GTGGTATTTT | 0.999 ± 0.035
74 | GTGGTGCTAG | 0.97206 ± 1.9e-05
75 | GTGGTGGGGC | 0.955 ± 0.03
76 | GTGGTGGTTG | 1.01 ± 0.028
77 | GTGGTGTTGT | 0.97 ± 0.037
78 | GTGGTTAAAA | 0.998 ± 0.012

Row | Sequence | switch fluorescence ratio
79 | GTGGTTCTTT | 0.989 ± 0.044
80 | GTGGTTGGAG | 0.9865 ± 0.0072
81 | GTGGTTGGCC | 1.011 ± 0.0027
82 | GTGGTTTGTT | 1.01 ± 0.046
83 | GTGGTTTTCG | 1.03 ± 0.062
84 | GTGTAAATGG | 1.01 ± 0.013
85 | GTGTAACCTG | 1.01 ± 0.054
86 | GTGTAAGAAC | 1.016 ± 0.0048
87 | GTGTAAGGGT | 0.981 ± 0.018
88 | GTGTAAGGTA | 1.02 ± 0.018
89 | GTGTACGCTG | 0.988 ± 0.027
90 | GTGTAGAGTT | 1.02 ± 0.016
91 | GTGTAGGGTA | 1.01 ± 0.02
92 | GTGTATAGGA | 0.98611 ± 0.00034
93 | GTGTATATGG | 0.995 ± 0.017
94 | GTGTATCGAT | 1.003 ± 0.0081
95 | GTGTATGGGA | 0.967 ± 0.033
96 | GTGTCAAGTA | 0.961 ± 0.016
97 | GTGTCATGGA | 1 ± 0.029
98 | GTGTCCGTGG | 1.003 ± 0.0037
99 | GTGTCCTTAT | 0.998 ± 0.074
100 | GTGTCGC | 0.991 ± 0.047
101 | GTGTCGGATC | 1.06 ± 0.023
102 | GTGTCGGGAA | 0.9838 ± 0.0023
103 | GTGTGAATGT | 1.01 ± 0.021
104 | GTGTGAGGTG | 1 ± 0.03

Row | Sequence | switch fluorescence ratio
105 | GTGTGAGTTG | 0.961 ± 0.022
106 | GTGTGATCCG | 1.01 ± 0.049
107 | GTGTGCACTG | 0.996 ± 0.029
108 | GTGTGCCGTG | 1.01 ± 0.05
109 | GTGTGCGCGT | 0.983 ± 0.025
110 | GTGTGCGCTG | 1.008 ± 0.0073
111 | GTGTGGATCA | 0.9867 ± 0.0093
112 | GTGTGGGGCG | 0.962 ± 0.058
113 | GTGTGGGGGT | 0.98 ± 0.019
114 | GTGTGGTTTT | 1.03 ± 0.015
115 | GTGTGTGGGG | 1.01 ± 0.048
116 | GTGTGTTTTT | 0.975 ± 0.053
117 | GTGTTATCGT | 0.969 ± 0.045
118 | GTGTTGCCCG | 1.07 ± 0.038
119 | GTGTTGCCGA | 1 ± 0.079
120 | GTGTTGGGGT | 0.986 ± 0.02
121 | GTGTTGTACG | 0.999 ± 0.015
122 | GTGTTGTTTT | 0.987 ± 0.028
123 | GTGTTTAAA | 0.962 ± 0.014
124 | GTGTTTAAGA | 1.01 ± 0.026
125 | GTGTTTACTG | 1.01 ± 0.054
126 | GTGTTTATCG | 0.966 ± 0.016
127 | GTGTTTATGC | 0.991 ± 0.0044
128 | GTGTTTTAAA | 1 ± 0.037
129 | GTGTTTTAGG | 0.96 ± 0.032
130 | GTGTTTTGGT | 0.98 ± 0.024

Row | Sequence | switch fluorescence ratio
131 | GTGTTTTTCC | 1.41 ± 0.49
132 | GTGTTTTTGT | 0.9723 ± 0.0083
133 | GTTAAAATTA | 1.01 ± 0.015
134 | GTTAAAGGGG | 0.983 ± 0.02
135 | GTTAACAGGA | 0.985 ± 0.019
136 | GTTAACGACG | 1.017 ± 0.0068
137 | GTTAACTTGA | 1.01 ± 0.011
138 | GTTAAGGATG | 1.012 ± 0.0071
139 | GTTAATAACA | 1.011 ± 0.0052
140 | GTTAATAGAA | 0.984 ± 0.035
141 | GTTACAAGCG | 0.994 ± 0.018
142 | GTTACAAGGG | 0.9883 ± 0.0092
143 | GTTACCTTTT | 1.04 ± 0.023
144 | GTTACTGAGG | 1.031 ± 0.0017
145 | GTTACTGCTG | 1.03 ± 0.043
146 | GTTAGAGATA | 0.992 ± 0.015
147 | GTTAGAGGGC | 1 ± 0.011
148 | GTTAGAGGGG | 1.01 ± 0.033
149 | GTTAGAGGTT | 0.999 ± 0.03
150 | GTTAGAGTAT | 1 ± 0.012
151 | GTTAGATTGA | 0.96 ± 0.041
152 | GTTAGATTGG | 0.982 ± 0.013
153 | GTTAGCGCAT | 1.04 ± 0.025
